From the Immune Epitope Database (IEDB) come the findings set out here.

pIC50, pKd: −log10 of the molar value.

Usually pKd stands for the negative decadic logarithm of the Kd, by convention in mol/L. Broadly, the pIC50 is −log10 of the IC50, conventionally taken in molar units. Read a low pIC50 as a high IC50.

In one assay the target is HLA-B*40:01. Briefly: IEDB peptide-MHC binding, purified MHC/competitive/radioactivity; filed as Kd, often an IC50 or EC50 that approximates it; ≥ and ≤ were set here for values at or beyond the usual limits of such assays.
The next assay deals with HLA-B*44:02. The description is as above.
A further assay addresses HLA-B*44:03. Described as above.
Assay [1] has as its target HLA-A*02:01. Kind of assay: IEDB peptide-MHC binding, purified MHC/competitive/fluorescence; ≥ and ≤ were set here for values at or beyond the usual limits of such assays.
In a further assay the target is HLA-A*32:01. Kind of assay: IEDB peptide-MHC binding, purified MHC/competitive/radioactivity; filed as Kd, often an IC50 or EC50 that approximates it; ≥ and ≤ were set here for values at or beyond the usual limits of such assays.
In assay [2] the target is HLA-A*02:01. Kind of assay: IEDB peptide-MHC binding, purified MHC/direct/fluorescence; filed as Kd, often an IC50 or EC50 that approximates it; ≥ and ≤ were set here for values at or beyond the usual limits of such assays. The conditions noted are these: source organism: Vaccinia virus Copenhagen.
The next assay addresses HLA-A*69:01. The assay is described as above. The conditions noted are these: source organism: Vaccinia virus Copenhagen.
A further assay concerns the target HLA-B*15:01. The description is as above. The conditions noted are these: source organism: Vaccinia virus Copenhagen.
The next assay addresses HLA-B*58:01. The assay is described as above. Particulars: source organism: Vaccinia virus Copenhagen.
In assay [3] the target is HLA-A*11:01. Described as above. Particulars: source organism: SARS-CoV1.
The target of another assay is HLA-A*01:01. Briefly: IEDB peptide-MHC binding, purified MHC/competitive/radioactivity; filed as Kd, often an IC50 or EC50 that approximates it; ≥ and ≤ were set here for values at or beyond the usual limits of such assays. The conditions noted are these: source organism: SARS coronavirus Tor2.
Another assay has as its target HLA-A*03:01. The assay is described as above. Particulars: source organism: SARS coronavirus Tor2.
In assay [4] the target is HLA-A*11:01. The description is as above. The conditions noted are these: source organism: SARS coronavirus Tor2.
In the next assay the target is HLA-A*23:01. The assay is described as above. The conditions noted are these: source organism: SARS coronavirus Tor2.
Another assay has as its target HLA-A*24:02. Described as above. Particulars: source organism: SARS coronavirus Tor2.
A further assay has as its target HLA-A*26:01. Described as above. Particulars: source organism: SARS coronavirus Tor2.
A further assay has as its target HLA-A*29:02. The assay is described as above. The conditions noted are these: source organism: SARS coronavirus Tor2.
A further assay has as its target HLA-A*30:02. The assay is described as above. The conditions noted are these: source organism: SARS coronavirus Tor2.
The next assay deals with HLA-A*31:01. Described as above. Particulars: source organism: SARS coronavirus Tor2.
Another assay deals with HLA-A*33:01. Described as above. The conditions noted are these: source organism: SARS coronavirus Tor2.
Another assay addresses HLA-A*68:01. The assay is described as above. Particulars: source organism: SARS coronavirus Tor2.
Where [5] appears, read: source organism: Dengue virus 2 Jamaica/1409/1983.
[6] abbreviates: source organism: Vaccinia virus Copenhagen.
Where [7] appears, read: source organism: Dengue virus 1 Brazil/97-11/1997.
[8] abbreviates: source organism: Vaccinia virus WR.
The mark [9] stands for this setting: source organism: Zaire ebolavirus.
The mark [10] stands for this setting: source organism: Dengue virus 3 Martinique/1243/1999.
Where [11] appears, read: source organism: Dengue virus 4 Philippines/H241/1956.

In the case of LETLLLLTL, the pKd in the assay with HLA-B*40:01 (setting [5]) was 8.24; with HLA-B*44:02 (setting [5]) it was 6.22; with HLA-B*44:03 (setting [5]), 5.87.

In the assay with HLA-A*02:01 [1] (setting [6]), IFINKLNGA gave a negative logarithm of the IC50 (pIC50) of 5.48. Consider IHAHHQWMTT, for which the negative logarithm of the Kd (pKd) in the assay with HLA-A*32:01 (setting [7]) was at most 4.57. In the assay with HLA-A*02:01 [1] (setting [8]), LVINRLGAD gave a pIC50 of at most 3.88. In the assay with HLA-A*02:01 [1] (setting [9]), VTLRKERLA showed a pIC50 of at most 3.44. For VELPNSLEEL, the pKd with HLA-B*40:01 (setting [7]) is 7.53. On to DLGPAFTEL, for which the pKd with HLA-A*02:01 [2] is 6.66; with HLA-A*69:01 it was 7.65; with HLA-B*15:01 it was at most 4.56; with HLA-B*58:01, 5.06. Take VISNSVAQA: the pIC50 with HLA-A*02:01 [1] (setting [9]) is 5.24. As to NELNHILLE, the pKd with HLA-B*44:03 (setting [7]) was 4.82. Turning to GEIGAIALDF, the negative-log Kd (pKd) with HLA-B*44:02 (setting [10]) was 7.87; in the assay with HLA-B*44:03 (setting [10]), 8.05. For AGISYKDREW, the pKd in the assay with HLA-B*44:02 (setting [11]) is 6.07; in the assay with HLA-B*44:03 (setting [11]), 5.38. On to TESHNQTFL, for which the negative-log Kd (pKd) in the assay with HLA-B*40:01 (setting [5]) is 7.79.

On to NLEDLIEWA, for which the pIC50 with HLA-A*02:01 [1] (source organism: Vaccinia virus) is at most 3.86. Sequence PVILSLPRI gave a pIC50 with HLA-A*02:01 [1] (source organism: Variola virus) of 5.73. In the assay with HLA-A*11:01 [3], DRYPANAIV showed a pKd of at most 4.60.

STMDVNHPI: the pKd with HLA-A*32:01 (setting [8]) is 8.13.

For the sequence FEIMDLEKRH, in the assay with HLA-B*40:01 (setting [5]), the pKd was 6.23.

Consider MENKAWLVH, for which the pKd with HLA-B*44:03 (source organism: Dengue virus 2 16681-PDK53) was 6.77.

Take GEIGAVTLDF: the pKd with HLA-B*40:01 (setting [11]) was 7.14; with HLA-B*44:02 (setting [11]), 7.77; in the assay with HLA-B*44:03 (setting [11]) it was 7.67.

Take ILYYLSAKI: the pKd in the assay with HLA-A*32:01 (setting [6]) is 8.05. As for REDQWCGSLI, the pKd in the assay with HLA-B*44:02 (setting [5]) was 6.43; with HLA-B*44:03 (setting [5]), 6.05.

Take KMSYSSVMI: in the assay with HLA-A*32:01 (setting [8]), the pKd was 7.85.

As to LEENMEVEI, the pKd with HLA-B*40:01 (setting [11]) is 7.08. TTFAEGVVA: the negative logarithm of the IC50 (pIC50) in the assay with HLA-A*02:01 [1] (setting [9]) is 4.30. For LEKAANVQW, the pKd with HLA-B*44:02 (setting [11]) is 7.23; in the assay with HLA-B*44:03 (setting [11]) it was 6.41.

With DNSTHNTPV, the pIC50 with HLA-A*02:01 [1] (setting [9]) was at most 3.34. Still for that read-out and setting: in the case of AATEAEKQL it was at most 3.36.

On to IEETNMITL, for which the pKd in the assay with HLA-B*40:01 (setting [11]) was 7.92. In the case of PNERRAWNSL, in the assay with HLA-A*32:01 (source organism: Dengue virus 4 Dominica/814669/1981), the pKd is 5.89. As for EERDDTLTI, in the assay with HLA-B*44:03 (setting [7]), the pKd is 5.84. Consider RENLLLGVGL, for which the pKd was 8.61 with HLA-B*40:01 (setting [10]), 7.67 with HLA-B*44:02 (setting [10]) and 6.53 in the assay with HLA-B*44:03 (setting [10]). In the case of CEPRSGIDF, the pKd with HLA-B*44:03 (setting [11]) was 6.05.

As to SIINSNVTW, the pKd with HLA-A*32:01 (source organism: Vaccinia virus L-IPV) is 7.95. In turn, HTSGPSVMA showed a pIC50 with HLA-A*02:01 [1] (source organism: Sudan ebolavirus) of at most 3.69. In the assay with HLA-A*02:01 [1] (setting [9]), AHGSTLAGV had a pIC50 of 4.22. VIPVYQVNN showed a pIC50 with HLA-A*02:01 [1] (setting [9]) of at most 3.47. In the assay with HLA-A*02:01 [1] (source organism: Variola virus), TKIDSMFLM gave a negative-log IC50 (pIC50) of 4.42. For the sequence TVAYFNMVY, the pKd with HLA-A*01:01 was 6.91; in the assay with HLA-A*03:01, 7.38; with HLA-A*11:01 [4], 7.22; in the assay with HLA-A*23:01, 4.85; with HLA-A*24:02, 4.96; with HLA-A*26:01 it was 7.85. Moreover, the pKd is 8.42 with HLA-A*29:02; 7.15 in the assay with HLA-A*30:02; at most 4.24 in the assay with HLA-A*31:01; at most 4.28 with HLA-A*33:01; 7.12 in the assay with HLA-A*68:01. Regarding GESSSNPTI, the pKd with HLA-B*40:01 (setting [11]) was 7.77; in the assay with HLA-B*44:02 (setting [11]) it was 7.12.
